Source: US11912777 (NANJING LEADS BIOLABS, dated 2024)

Assays:
[1] = biological target: T1, extracellular region of mouse TNFR2 (mouse, UniProt P25119 23-258); experiment: ELISA, TNFR2 protein coated at 0.5 µg/mL
T1 construct: The entry includes a signal peptide marked only by underlining (not visible here)
T1 sequence: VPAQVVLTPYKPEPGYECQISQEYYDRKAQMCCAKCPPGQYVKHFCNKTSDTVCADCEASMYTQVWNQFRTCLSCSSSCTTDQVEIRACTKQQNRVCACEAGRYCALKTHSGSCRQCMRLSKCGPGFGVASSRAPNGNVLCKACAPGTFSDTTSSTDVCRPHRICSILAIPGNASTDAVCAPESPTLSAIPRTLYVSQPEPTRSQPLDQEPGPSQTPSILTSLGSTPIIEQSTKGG

[2] = biological target: T2, mouse TNFR2 variant 019-2 (human segment 56S-97C) (mouse with a human segment); experiment: ELISA, TNFR2 variant coated at 0.5 µg/mL
T2 construct: Mouse TNFR2 extracellular domain with the human segment, followed by a human Fc
T2 sequence (chain, as listed by the source mutant limits assumed): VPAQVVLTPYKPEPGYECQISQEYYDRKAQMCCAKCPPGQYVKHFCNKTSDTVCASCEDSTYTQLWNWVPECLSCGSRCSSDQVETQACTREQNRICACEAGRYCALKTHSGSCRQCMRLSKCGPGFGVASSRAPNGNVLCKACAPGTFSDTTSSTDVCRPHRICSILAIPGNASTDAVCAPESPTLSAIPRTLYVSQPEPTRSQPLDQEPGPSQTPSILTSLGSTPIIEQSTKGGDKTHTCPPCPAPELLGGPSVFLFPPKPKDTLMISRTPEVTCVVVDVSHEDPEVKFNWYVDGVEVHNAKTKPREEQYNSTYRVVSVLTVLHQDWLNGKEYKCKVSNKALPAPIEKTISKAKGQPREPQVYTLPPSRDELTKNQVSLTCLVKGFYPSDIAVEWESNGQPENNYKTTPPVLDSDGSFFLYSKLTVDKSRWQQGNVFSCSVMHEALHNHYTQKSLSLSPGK

[3] = biological target: T3, mouse TNFR2 variant 019-3 (human segment 98T-141K) (mouse with a human segment); experiment: ELISA, TNFR2 variant coated at 0.5 µg/mL
T3 construct: Mouse TNFR2 extracellular domain with the human segment, followed by a human Fc
T3 sequence (chain, as listed by the source mutant limits assumed): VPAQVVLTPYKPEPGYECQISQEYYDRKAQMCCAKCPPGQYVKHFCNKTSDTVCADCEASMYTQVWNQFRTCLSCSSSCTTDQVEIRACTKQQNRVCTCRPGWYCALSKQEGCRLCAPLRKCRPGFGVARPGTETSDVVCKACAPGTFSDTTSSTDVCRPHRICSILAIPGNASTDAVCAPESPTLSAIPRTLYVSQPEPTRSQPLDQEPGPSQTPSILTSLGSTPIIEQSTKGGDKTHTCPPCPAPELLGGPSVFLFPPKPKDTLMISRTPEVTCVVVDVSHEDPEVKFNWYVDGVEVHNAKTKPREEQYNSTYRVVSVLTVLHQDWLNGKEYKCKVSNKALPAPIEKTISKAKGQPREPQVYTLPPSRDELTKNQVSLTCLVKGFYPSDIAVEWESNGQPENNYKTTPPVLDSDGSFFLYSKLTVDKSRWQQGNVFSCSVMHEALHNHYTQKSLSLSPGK

[4] = biological target: T4, mouse TNFR2 variant 019-4 (human segment 143P-181T) (mouse with a human segment); experiment: ELISA, TNFR2 variant coated at 0.5 µg/mL
T4 construct: Mouse TNFR2 extracellular domain with the human segment, followed by a human Fc
T4 sequence (chain, as listed by the source mutant limits assumed): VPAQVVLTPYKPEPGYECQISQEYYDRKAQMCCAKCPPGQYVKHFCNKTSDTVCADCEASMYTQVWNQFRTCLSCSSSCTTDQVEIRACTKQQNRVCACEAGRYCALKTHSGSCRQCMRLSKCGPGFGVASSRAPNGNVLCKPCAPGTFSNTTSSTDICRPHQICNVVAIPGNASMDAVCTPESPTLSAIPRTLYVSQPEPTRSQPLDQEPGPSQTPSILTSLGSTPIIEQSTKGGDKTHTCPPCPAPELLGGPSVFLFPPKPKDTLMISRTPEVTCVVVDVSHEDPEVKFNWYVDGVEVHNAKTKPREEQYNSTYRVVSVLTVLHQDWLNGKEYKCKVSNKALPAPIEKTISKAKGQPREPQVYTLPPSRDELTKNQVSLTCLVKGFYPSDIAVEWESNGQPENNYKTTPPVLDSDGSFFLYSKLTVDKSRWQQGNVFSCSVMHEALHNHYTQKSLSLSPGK

[5] = biological target: T5, mouse TNFR2 variant 019-5 (human segment 39G-75C) (mouse with a human segment); experiment: ELISA, TNFR2 variant coated at 0.5 µg/mL
T5 construct: Mouse TNFR2 extracellular domain with the human segment, followed by a human Fc
T5 sequence (chain, as listed by the source mutant limits assumed): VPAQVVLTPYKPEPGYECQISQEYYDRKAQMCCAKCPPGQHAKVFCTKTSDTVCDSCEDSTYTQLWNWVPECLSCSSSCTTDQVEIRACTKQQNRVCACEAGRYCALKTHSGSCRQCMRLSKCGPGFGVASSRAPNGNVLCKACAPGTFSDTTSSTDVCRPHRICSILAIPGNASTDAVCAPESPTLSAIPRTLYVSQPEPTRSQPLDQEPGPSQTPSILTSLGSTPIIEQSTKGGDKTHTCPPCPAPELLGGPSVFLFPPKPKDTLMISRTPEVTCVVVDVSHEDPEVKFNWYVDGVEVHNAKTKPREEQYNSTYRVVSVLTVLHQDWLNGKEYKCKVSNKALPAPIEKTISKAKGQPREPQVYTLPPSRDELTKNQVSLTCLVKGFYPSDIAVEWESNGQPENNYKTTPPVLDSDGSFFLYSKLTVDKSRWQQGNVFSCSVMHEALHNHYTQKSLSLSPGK

[6] = biological target: T6, mouse TNFR2 variant 019-6 (human segment 76G-121K) (mouse with a human segment); experiment: ELISA, TNFR2 variant coated at 0.5 µg/mL
T6 construct: Mouse TNFR2 extracellular domain with the human segment, followed by a human Fc
T6 sequence (chain, as listed by the source mutant limits assumed): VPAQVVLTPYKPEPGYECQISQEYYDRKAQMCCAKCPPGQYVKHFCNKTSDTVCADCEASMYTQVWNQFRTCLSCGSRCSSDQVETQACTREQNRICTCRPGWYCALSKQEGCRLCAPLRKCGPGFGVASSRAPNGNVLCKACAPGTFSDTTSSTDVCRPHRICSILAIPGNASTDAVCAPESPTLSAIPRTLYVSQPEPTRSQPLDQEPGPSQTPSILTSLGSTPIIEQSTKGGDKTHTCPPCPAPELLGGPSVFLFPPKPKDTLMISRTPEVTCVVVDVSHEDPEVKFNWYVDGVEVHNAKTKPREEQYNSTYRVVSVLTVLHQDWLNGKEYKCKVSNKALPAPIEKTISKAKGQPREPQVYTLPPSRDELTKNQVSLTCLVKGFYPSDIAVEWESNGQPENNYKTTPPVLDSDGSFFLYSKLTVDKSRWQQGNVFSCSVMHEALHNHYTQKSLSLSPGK

[7] = biological target: T7, mouse TNFR2 variant 019-0.5-1 (human segment 17T-31C) (mouse with a human segment); experiment: ELISA, TNFR2 variant coated at 0.5 µg/mL
T7 construct: Mouse TNFR2 extracellular domain with the human segment, followed by a human Fc
T7 sequence (chain, as listed by the source mutant limits assumed): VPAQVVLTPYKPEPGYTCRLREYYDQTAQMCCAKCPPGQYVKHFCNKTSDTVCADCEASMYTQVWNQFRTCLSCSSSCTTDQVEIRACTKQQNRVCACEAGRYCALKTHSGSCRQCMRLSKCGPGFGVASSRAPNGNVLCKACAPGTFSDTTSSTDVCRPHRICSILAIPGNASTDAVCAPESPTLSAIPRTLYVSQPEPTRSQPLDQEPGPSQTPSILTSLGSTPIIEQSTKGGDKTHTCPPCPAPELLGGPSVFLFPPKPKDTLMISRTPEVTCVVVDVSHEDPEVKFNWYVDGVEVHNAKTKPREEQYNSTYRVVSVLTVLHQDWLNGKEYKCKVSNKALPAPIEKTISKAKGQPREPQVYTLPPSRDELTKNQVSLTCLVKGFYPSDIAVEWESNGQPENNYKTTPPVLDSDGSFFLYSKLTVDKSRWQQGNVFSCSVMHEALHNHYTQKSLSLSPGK

[8] = biological target: T8, mouse TNFR2 variant 019-0.5-2 (human segment 1L-16S) (mouse with a human segment); experiment: ELISA, TNFR2 variant coated at 0.5 µg/mL
T8 construct: Mouse TNFR2 extracellular domain with the human segment, followed by a human Fc; also called 019-0-0.5-2
T8 sequence (chain, as listed by the source mutant limits assumed): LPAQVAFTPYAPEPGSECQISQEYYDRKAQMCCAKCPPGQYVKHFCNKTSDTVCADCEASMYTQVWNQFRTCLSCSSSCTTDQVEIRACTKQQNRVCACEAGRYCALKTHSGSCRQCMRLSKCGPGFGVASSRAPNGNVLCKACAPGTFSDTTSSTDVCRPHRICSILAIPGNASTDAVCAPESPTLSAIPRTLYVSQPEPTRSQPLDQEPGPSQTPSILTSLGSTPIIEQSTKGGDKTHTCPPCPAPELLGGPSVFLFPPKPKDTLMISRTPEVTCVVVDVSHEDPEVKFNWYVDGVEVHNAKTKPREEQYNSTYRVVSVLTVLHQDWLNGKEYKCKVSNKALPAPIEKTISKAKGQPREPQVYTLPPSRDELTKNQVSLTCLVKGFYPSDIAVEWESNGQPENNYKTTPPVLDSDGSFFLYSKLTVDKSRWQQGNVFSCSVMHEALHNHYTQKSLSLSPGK

[9] = biological target: T9, E13A; experiment: ELISA on coated human TNFR2 mutant E13A; lower panel
T9 construct: also called human TNFR2 E13A
T9 receptor: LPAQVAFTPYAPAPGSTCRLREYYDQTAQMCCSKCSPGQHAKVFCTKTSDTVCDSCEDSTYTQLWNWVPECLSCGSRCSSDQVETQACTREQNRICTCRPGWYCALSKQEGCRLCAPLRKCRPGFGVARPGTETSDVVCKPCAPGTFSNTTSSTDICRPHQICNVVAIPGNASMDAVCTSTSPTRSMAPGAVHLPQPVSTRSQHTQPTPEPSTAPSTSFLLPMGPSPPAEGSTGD

[10] = biological target: T10, S16A; experiment: ELISA on coated human TNFR2 mutant S16A; lower panel
T10 construct: also called human TNFR2 S16A
T10 receptor: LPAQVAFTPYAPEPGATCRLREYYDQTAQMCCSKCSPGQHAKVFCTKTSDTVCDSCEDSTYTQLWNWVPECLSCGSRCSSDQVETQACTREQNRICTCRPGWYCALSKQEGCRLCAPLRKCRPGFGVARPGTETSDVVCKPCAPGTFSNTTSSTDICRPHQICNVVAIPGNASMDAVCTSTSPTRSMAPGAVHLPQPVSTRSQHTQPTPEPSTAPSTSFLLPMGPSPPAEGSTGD

[11] = biological target: T11, mouse TNFR2 variant 019-0-1 (human segment 1L-54D) (mouse with a human segment); experiment: ELISA on coated variant 019-0-1, epitope mapping; upper panel
T11 construct: Mouse TNFR2 extracellular domain with the human segment, followed by a human Fc

[12] = biological target: T12, mouse TNFR2 variant 019-0-0.5 (human segment 1L-31C) (mouse with a human segment); experiment: ELISA on coated variant 019-0-0.5, epitope mapping; upper panel
T12 construct: Mouse TNFR2 extracellular domain with the human segment, followed by a human Fc

[13] = biological target: T13, cynomolgus monkey TNFR2 expressed on the cell surface of 293T cells (cynomolgus monkey, UniProt P20333 23-283 (human entry)); experiment: flow cytometry on 293T cells expressing cynomolgus TNFR2; left panel; unit from the axis
T13 construct: the entry ends shortly after the transmembrane stretch and includes the signal peptide; also called CynoTNFR2; cynomolgus TNFR2 on cell surface
T13 chain: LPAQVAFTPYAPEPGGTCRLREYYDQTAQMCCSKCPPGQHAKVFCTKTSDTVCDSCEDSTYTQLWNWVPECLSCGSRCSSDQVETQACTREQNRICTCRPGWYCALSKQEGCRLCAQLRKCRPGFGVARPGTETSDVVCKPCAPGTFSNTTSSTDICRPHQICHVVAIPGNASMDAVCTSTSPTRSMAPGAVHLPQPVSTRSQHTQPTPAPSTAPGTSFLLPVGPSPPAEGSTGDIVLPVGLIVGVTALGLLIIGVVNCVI

[14] = biological target: T14, human TNFR2, mouse Fc-tag (human); experiment: blocking ELISA: hTNFR2-mFc mixed with antibody, binding to coated TNF-alpha his tag; right panel; unit from the axis [b]
T14 construct: also called hTNFR2-mFc; huTNFR2-mFc
T14 chain: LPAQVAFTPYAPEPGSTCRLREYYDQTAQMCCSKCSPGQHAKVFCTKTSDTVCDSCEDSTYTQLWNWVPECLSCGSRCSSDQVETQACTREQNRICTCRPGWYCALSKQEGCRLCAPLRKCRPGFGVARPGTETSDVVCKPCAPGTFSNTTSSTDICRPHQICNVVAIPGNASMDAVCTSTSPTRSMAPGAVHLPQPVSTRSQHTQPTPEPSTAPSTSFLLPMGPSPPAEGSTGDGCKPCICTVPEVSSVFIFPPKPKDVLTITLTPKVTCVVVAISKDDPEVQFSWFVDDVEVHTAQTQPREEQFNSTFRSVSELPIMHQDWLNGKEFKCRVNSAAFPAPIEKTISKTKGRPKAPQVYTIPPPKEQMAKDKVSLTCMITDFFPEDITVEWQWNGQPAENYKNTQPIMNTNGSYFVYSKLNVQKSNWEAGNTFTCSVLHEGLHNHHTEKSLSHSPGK

binding result [9]: binds | binding result [10]: binds | EC50 (read off the curve) [11]: ~6 ng/mL | EC50 (read off the curve) [12]: ~6 ng/mL | EC50 [13]: 0.671 nM | IC50 [14]: 0.282 nM
B1: humanized antibody hu3-E (Hu3-H3/Hu3-L1) (antibody, human IgG1, kappa, V domains shown)
VH: QIQLVQSGAEVKKPGASVKVSCKASGYTFTTYGMSWVRQAPGQGLEWMGWIHTYSGVPTYADDFKGRFAFTLDTSTSTAYMELRSLRSDDTAVYYCARGLYGVDYWGQGTLVTVSS
VL: EIVMTQSPATLSLSPGERATLSCKASENVVTYVSWYQQKPGQAPRLLIYGASNRYTGIPARFSGSGSATDFTLTISSLQPEDFAVYYCGQSYTYPYTFGQGTKLEIKR
notes: Humanized form of 43B7A4, human IgG1/kappa
binding result [1]: no binding (tested: starting concentration 0.4 µg/mL) | binding result [2]: no binding (tested: starting concentration 0.4 µg/mL) | binding result [3]: no binding (tested: starting concentration 0.4 µg/mL) | binding result [4]: no binding (tested: starting concentration 0.4 µg/mL) | binding result [5]: no binding (tested: starting concentration 0.4 µg/mL) | binding result [6]: no binding (tested: starting concentration 0.4 µg/mL) | binding result [7]: no binding (tested: starting concentration 0.4 µg/mL) | binding result [8]: no binding (tested: starting concentration 0.4 µg/mL)
